Consider 20 sequences from the DeepSol protein solubility set.

A short description of the series: soluble on expression in E. coli; label from the status in PepcDB or PDB records.
For the sequence “MMNDSFCRIIAGEIQARPEQVDAAVRLLDEGNTVPFIARYRKEITGGLDDTQLRNLETRLSYLRELEERRQAILKSISEQGKLTDDLAKAINATLSKTELEDLYLPYKPKRRTRGQIAIEAGLEPLADLLWSDPSHTPEVAAAQYVYADKGVADTKAALDGARYILMERFAEDAALLAKVRDYLWKNAHLVSTVVSGKEEEGAKFRDYFDHHEPLSTVPSHRALAMFRGRNEGVLQLSLNADPQFDEPPKESYCEQIIMDHLGLRLNNAPADSWRKGVVSWTWRIKVLMHLETELMGTVRERAEDEAINVFARNLHDLLMAAPAGLRATMGLDPGLRTGVKVAVVDATGKLVATDTIYPHTGQAAKAAMTVAALCEKHNVELVAIGNGTASRETERFYLDVQKQFPKVTAQKVIVSEAGASVYSASELAAQEFPDLDVSLRGAVSIARRLQDPLAELVKIDPKSIGVGQYQHDVSQTQLARKLDAVVEDCVNAVGVDLNTASVPLLTRVAGLTRMMAQNIVAWRDENGQFQNRQQLLKVSRLGPKAFEQCAGFLRINHGDNPLDASTVHPEAYPVVERILAATQQALKDLMGNSSELRNLKASDFTDEKFGVPTVTDIIKELEKPGRDPRPEFKTAQFADGVETMNDLQPGMILEGAVTNVTNFGAFVDIGVHQDGLVHISSLSNKFVEDPHTVVKAGDIVKVKVLEVDLQRKRIALTMRLDEQPGETNARRGGGNERPQNNRPAAKPRGREAQPAGNSAMMDALAAAMGKKR”, the “soluble on expression in E. coli” value is “soluble”.

Take “MGSDKIHHHHHHMITIVKKVRNEIIRKIYRIPLFSNTADIAYQTAITQHTNHLPYLADSDLSLVKNLQEEGIVITSLTELSIPSTMEMLQAAKLLKTKIPINIAGNQNEFTVHASSEQIREHSSIFFWGLQERLLNIVENYLGLSVAYHGAYFRRDINNQVRKKSRLWHLDKEDRKMLKIIIYLNDVNEDGGPFEYIPKSLTSHISKSLKYDDTYIKDETMDQVVSSSYWQPCTGKSGAVIFVDTANIFHRGKLPLSSDRLSIFFDYTTRQPKHPFYCKSSLSNKDLLAVSAELSENQKQCIFWQHNYN”: the “soluble on expression in E. coli” value is given as “not soluble”.

As for “MAVYTDITEDELRNFLTQYDVGSLTSYKGIAEGVENSNFLLHTTKDPLILTLYEKRVEKNDLPFFLGLMQHLAAKGLSCPLPLPRKDGELLGELSGRPAALISFLEGMWLRKPEAKHCREVGKALAAMHLASEGFEIKRPNALSVDGWKVLWDKSEERADEVEKGLREEIRPEIDYLAAHWPKDLPAGVIHADLFQDNVFFLGDELSGLIDFYFACNDLLAYDVSICLNAWCFEKDGAYNVTKGKALLEGYQSVRPLSEAELEALPLLSRGSALRFFLTRLYDWLTTPAGALVVKKDPLEYLRKLRFHRTIANVAEYGLAGE”, the “soluble on expression in E. coli” value is “soluble”.

Take “MGSDKIHHHHHHMCYTPACLFSRVLHSSTRWRGGRVVECVALEKRSTRKGTVGSNPTLFAKKEAPRPAQQAGFSFVDSVSQVSGAAIVQPMTRFAWTPETIPWQETAPDGTRYALLEGVREAGTFTYAFFLPAGFWDEAHWHSTDARVFVMQGELRLGYGDRLDKEAATSYPAGSALLVPAEHRHHDGAEVDTLILGVASGSWFTRYVNSANQGSAGTV”: the “soluble on expression in E. coli” value was “not soluble”.

For the sequence “GPGSMIGLYRVVQFVHLTFFSTGHDLKRRYSKAGDWAVVTGGTEGIGRAVALDLANRGFNVCVISRTQSKLDEVVAEIEKCGTRGHSIAFDFATAGEAEYKMLFAKLDSLAVGLLVNNVGVNYTYANYFDEADVVDDLRIIKVNCEATTRMTKFFAPRMKARRAGGIVLLGSFSAVTPAPLLATYAGTKAFNVSFGDALFYELKKFGVDVLVVTPNLVVSRMTQGASTRAPKETFLTVGAAAMARQTLNQLGVVNRTAGHRNHIIIEAIARLLPESLRGEKMLAMHESIKKRAERKAKQ”, the “soluble on expression in E. coli” value is recorded as “not soluble”.

In the case of “PNFSGNWKIIRSENFEELLKVLGVNVMLRKIAVAAASKPAVEIKQEGDTFYIKVSTTVRTTEINFKVGEEFEEQTVDGRPCKSLVKWESENKMVCEQKLLKGEGPKTSWTLELTNDGELIDTMTADDVVCTKVFVRE”, the “soluble on expression in E. coli” value is given as “soluble”.

For the sequence “MNLASVLLLLAACHLSVSVNGQEHKEAIELSMANHDHVLGSAQVVFVAFCADWCPFSRRLKPIFEESARVFHQENPQASAVWAIVDSQRQADIGDKYFVNKYPTMKVFVNGELITKEYRSTRSVEALTNFVKFQLSTAINEFSSQDQLNQEMDKSKRNVVAWLKKDGPEFANLKKVASILREDCSFWVPTDHFGTQTNDNKLSFFDPDSNEEAKFTGNFNDYDFVKQWVTDKCIPLVREVTFENVEELTEEGMPFLIYFRDPDNKTTDKVFGEAVARELYDQRSAINPLLADGHKFAHPLKHLGKTKEDLPVLAIDSFQHMYLFPDMTQMNIPGKLREFVMDLHSGKLHKDFHENLDQRMIELAKAKAARGITDDHEAQAPSTRPIDTTPPPSVFKELKPSDKRYSILQKSEL”, the “soluble on expression in E. coli” value was “not soluble”.

Turning to “MSAETYVMEIDGGPGDLHCMKCLKICNYLKDSYCCKKTKNMTLPQKKAESAFLMICLQRNTIELMVTALLANKKIIDSKGNCAFCRNKKQHEEEKWCAGRTKLQLFLHRIDKDELKVEEYLEKYLEIKTRNRMEQLDIVQARIVREMKAVAIAQGKSEEEVEHILAKQGRKARRMQRSEYKHAEEDNKGVRQRLAAKLVAKKSEIIERFCLAQRTVFVKADCPNVYGRTTTHISYLLE”, the “soluble on expression in E. coli” value is given as “not soluble”.

With “MAHHHHHHMGRVRHGATICSAVSDATAGKQKSACVTDVEEIPTLSFLSSKSILSETVDRTIEVCDALLNEIPKAKSIKEKHDLIDSTSNVLCLLLDPCEFVRQVHPDAEYKQHASYAFQKGYEYMSKVNSRRDLYDVVLQLDSTEGHKELSSEEIKNVAQLRRDMESNGIHLPDKLREKVTEMNIEKEELAMRFLTEQGSKNPFATLRYLLQCRYELSQLLGFESFAEQQLRGTMLENQQRVWHFLCGIAHKYRREAEKEMDIIRSNVGEVRNRQNITDDVRARVAHSLRRDAEPETAAEYFSVANCIRGIQCLCLEVFGVRLEEVQFDKDEIFNNDAKKYHVYDENKAFLGVIVLDLYASEMKYCQAGHLTLQLGCIPHQEALAKVGLKLPKRQYPVVVLTCNVGACSPVQRLPNGRFDDESTLMHPNEVTTVFHEFGHAMHTIFGQTKVQNLAGTRASIDFVETFSQLFEQFLTSHEFLQLWAHRISTREPISFDMVMKRNAAADMFKHLDMMDQVVLSAVDQTLHGPQPYTVYFPRGDQGNLGKRTLGDIGDYGRGTYNLAKVLIDICTPLSIVTPTETGVLGTLSFEHLSGYPAGYYGYLYSLSIARRIWAKKFMKDPLNRDAGRELVQKVMRHGAACNPVDVIENYLEDKLDEIDIWV”, the “soluble on expression in E. coli” value is reported as “not soluble”.

In the case of “SNAKVILYARVSSNTQKDDLANQVKYLEEQVKEYDLVITDIGSGLNMKRKGFLKLLRMILNNEVSRVITAYPDRLVRFGFEILEEVCKAHNCEIVVLNQEDKTPEEELVEDLATILVSFSGKLHGMRSQKYEKVKKCAEELKN”, the “soluble on expression in E. coli” value is reported as “soluble”.

Turning to “MSSQRWLWRNQHSVQTNIGSREKDLKITKTKKIKKKHERAYELLAEAAYSDPFAALGPFIDDGEGSLRVWMPGANKVELLVNGEPRVALERDGDSGFILKEQRDLHLTHYRLAVDWNGVEQIIDDPYQYHNIYQEYEHLHTPKDM”, the “soluble on expression in E. coli” value is “not soluble”.

Take “MGSDKIHHHHHHMQISFISHEYPPVSGGGSTALHEYASGLATRGHAVQVVTVGTGAHDTVDTEDGVQVVRLAAGRKSLLAPSKAELIRSCAALRLKSMPHLRRHEPEVLVAFFAFPAGFLAAPLAAKLNIPLVVSLRGSDVPGFSAKRLGVFGPLLPYLFRRATRHAAAVVPNGRRLADMAAPYLHTGSRVQVIPNGVDTLRFAPQGAEHGSMGGPLRVLFVGQMIARKQCLVLAQALHEVAARGVPLQVSFAGSGPLEQDIRRIVSSLDPVVGVTFTGHVPRNAIADLYGAHDVLVHLSQAEGVSNVLMEALSSGLCLVAADTAVDAAIDGVPRQAPAEDGGIILLPVDCGPVVLGATLAGLACNRSLVEEQQRLARRTALKNSWQVRVGELEDLLTGSIAGCQAS”: the “soluble on expression in E. coli” value was “not soluble”.

Take “MNIKKHLPWLGALLPIINAQADTNPNVVIIYIDDMGIGDIGCYGGKFVATPNIDKLAQDGLLFNQYYSSAPVSSPSRCGLTTGLFPIEVGINTFLNDKASNKRCEQRNYLDDKLPSMARAFQNAGYATGHIGKWHMGGGRDVHNAPSIKNYGFDEYLSTYESPDPDPAITASKWIWCDNDSIKRWKRTEYFVDKSIDFIKRHKDSPFFLNLWPDDMHTPWVPEFKQKERKSWETKEAFSPVLGEMDKQIGRFIKALDDMGLSENTIIIFTSDNGPAPSFKAVRSAYLRGTKNSLYEGGIRMPFIVKYPKKIKPGRVNNSSVLCAVDLYPTLCSVAGIKTEKNYKGDGQNYAKVLLGKSEAKRKTDLMWDFGRNKHFGFPGNPYDRSPHLAIRSGKWKLLVNGDGSDAQLYDMELDKFEKNNIAGEHPELVAKLSKKVCEWYAQNKDKGLQTDLLEHHHHHH”: the “soluble on expression in E. coli” value is reported as “soluble”.

As to “MDCWISTDYQSRTGNMAYPCTNRKTADSYYLNRSYQLDRIAVLLFLRQGTNAAMAGYWSSKILATSESNIYMNIILNMGEYSKSQ”, the “soluble on expression in E. coli” value is on record as “not soluble”.

Consider “MGSDKIHHHHHHMDTKAFKRSLQHSENYNRKGFGHQAEVATQLQSEYQSNLIQEIRDRNYILQRGDVTIRLAQAFGFCWGVERAVAMAYETRQHFPTEHIWITNEIIHNPSVNQRMQEMEVEFIPIEGKNKDFSVVGTGDVVILPAFGASVQEMQILHDKGCKIVDTTCPWVSKVWNTVEKHKKIDYTSIIHGKYKHEETVATSSFAGKYLIVLNLQEAQYVADYIINGGNREEFLTKFAKACSAGFDPDRDLERVGIANQTTMLKDETEQIGKLFERTMLQKYSPIELNQHFQSFNTICDATQERQDAMLELVEHNLNLMVVIGGFNSSNTTQLQQIAFERRIPSYHIDTVERIKSGDSIEHRQLNGQLITTENWLPDGEIVVGITSGASTPDKVVEDVIEKIFAVKATAALV”, for which the “soluble on expression in E. coli” value is reported as “not soluble”.

With “GSPGGSLFVALYDFVASGDNTLSITKGEKLRVLGYNHNGEWCEAQTKNGQGWVPSNYITPVS”, the “soluble on expression in E. coli” value is reported as “soluble”.

For the sequence “SNAMNQTLLSDFGTPVERVERAIDALRNGRGVMVLDDESRENEGDMVFAAEAMTLEQMALTIRHGSGIVCLCITDERRQQLDLPMMVTHNSSQFQTAFTVTIEAAEGVTTGVSAADRLTTIRKAIADNAKPADLNRPGHVFPLRGQPGGVLSRRGHTEASIDLATLAGYKPAGVLCELTNDDGSMAHAPEVIAFAKLHDMPVVTIDDLAAYLQSRAKKAS”, the “soluble on expression in E. coli” value is on record as “soluble”.

Consider “MVDSYDDSLDGEKSKTQVKRELHALVDLGERLTTLKADVLAKLPLTDALRKALAEAPKHTANIARKRHILFIGKLMRDQDQEAILVLLDQLDASTRQYNERFHNLERWRDRLIAGDDADLEKFVIEYPDADRQQLRSLIRQAQHEVARNKPPATSRKIFKYIRELDELQRGLR”, for which the “soluble on expression in E. coli” value is “not soluble”.

Take “MRDVHSISAMNLRDVLSIPEVKQGQVIGKKIPATLGEDGMNVLGEPIKAKPGREFVLRPGKNSTVDEANGTLVAAVDGQMSVDKRTIHVYPVYEVPGDLTMKHGNISFIGNVIIRGHVPDGFVVKAGGDIRVFGTVEGATLEAGGSIFVGAGIVGQNRGCIRAEGGLHTTFINQAKVEVGGDIEVVQSILHSTCTAGGKIICTRGKGNIVGGALSAEDHIYAKEIGNSMHTKTSLYIGAKEKWVTKEKQLAKEYKTTEEELKKLSLLLQKFQELEKENGLTANGRVQRLRVKNTLVQVKEKHEQIKEQLEDVQENLTLNQAGSIVVEQTLYPNVSAHFGKYRRKIVSNHSNVKLSLVDQEIQLSSRLEHHHHHH”: the “soluble on expression in E. coli” value is reported as “not soluble”.

For the sequence “SASTIYTCKECGSDLNLNPNDLFPPDFYFEAGNKGTLSFAAVDAEKFRFEKEDKIMPFFETLNYWGIQRKRTKIKCTSCNHLIGYIYDDGPPLTGGIGQYGFGPSQVIPRAPRYRFKTKARQDGWQYGGLTAFWN”, the “soluble on expression in E. coli” value was “soluble”.
